In publication PMC11186044, “Rationally Engineering pH Adaptation of Acid‐Induced Arginine Decarboxylase from Escherichia coli to Alkaline Environments to Efficiently Biosynthesize Putrescine” (Advanced Science, 2024):

Legend:
SpeB = target: T1, SpeB (Escherichia coli, UniProt P60651); test: agmatinase activity versus pH (details in supplement); assay type: biochemical; details: alkaline pH preferred; enzyme preparation not given
T1 construct: agmatinase; construct and assay details only in supplement
T1 sequence (P60651 1-306): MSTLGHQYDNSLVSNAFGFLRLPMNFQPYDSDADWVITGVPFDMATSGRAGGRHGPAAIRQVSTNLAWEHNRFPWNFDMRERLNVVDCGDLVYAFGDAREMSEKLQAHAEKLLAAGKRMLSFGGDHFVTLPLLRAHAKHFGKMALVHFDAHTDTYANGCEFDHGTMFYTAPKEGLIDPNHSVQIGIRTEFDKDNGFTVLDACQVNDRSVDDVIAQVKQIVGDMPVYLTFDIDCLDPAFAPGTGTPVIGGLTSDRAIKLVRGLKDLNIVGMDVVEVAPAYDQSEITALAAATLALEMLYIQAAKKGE

[1] = substrate: N=C(N)NCCC[C@H](N)C(=O)O; test: agmatine formation by HPLC, Michaelis-Menten fit; assay type: biochemical, Escherichia coli; details: pH 7.0, 37 °C, 0.5 mmol·L^−1 PLP, 2.5 mmol·L^−1 MgSO4, 5 mmol·L^−1 DTT
Source text: agmatine formation by HPLC, Michaelis-Menten fit on AdiA

N=C(N)NCCCCN [agmatine]
agmatinase activity versus pH (details in supplement) (SpeB): SpeB, agmatinase that catalyzes the synthesis of putrescine from agmatine

B1: AdiA (Escherichia coli K-12) (protein)
chain: MKVLIVESEFLHQDTWVGNAVERLADALSQQNVTVIKSTSFDDGFAILSSNEAIDCLMFSYQMEHPDEHQNVRQLIGKLHERQQNVPVFLLGDREKALAAMDRDLLELVDEFAWILEDTADFIAGRAVAAMTRYRQQLLPPLFSALMKYSDIHEYSWAAPGHQGGVGFTKTPAGRFYHDYYGENLFRTDMGIERTSLGSLLDHTGAFGESEKYAARVFGADRSWSVVVGTSGSNRTIMQACMTDNDVVVVDRNCHKSIEQGLMLTGAKPVYMVPSRNRYGIIGPIYPQEMQPETLQKKISESPLTKDKAGQKPSYCVVTNCTYDGVCYNAKEAQDLLEKTSDRLHFDEAWYGYARFNPIYADHYAMRGEPGDHNGPTVFATHSTHKLLNALSQASYIHVREGRGAINFSRFNQAYMMHATTSPLYAICASNDVAVSMMDGNSGLSLTQEVIDEAVDFRQAMARLYKEFTADGSWFFKPWNKEVVTDPQTGKTYDFADAPTKLLTTVQDCWVMHPGESWHGFKDIPDNWSMLDPIKVSILAPGMGEDGELEETGVPAALVTAWLGRHGIVPTRTTDFQIMFLFSMGVTRGKWGTLVNTLCSFKRHYDANTPLAQVMPELVEQYPDTYANMGIHDLGDTMFAWLKENNPGARLNEAYSGLPVAEVTPREAYNAIVDNNVELVSIENLPGRIAANSVIPYPPGIPMLLSGENFGDKNSPQVSYLRSLQSWDHHFPGFEHETEGTEIIDGIYHVMCVKA
notes: recombinant full-length acid-induced arginine decarboxylase; homodecamer (five dimers) with PLP; plasmids in supplement
Km [1]: 12.08 ± 0.86 mM | kcat [1]: 3.54 ± 0.28 s⁻¹ | kcat/Km [1]: 290 M⁻¹ s⁻¹

B2: AdiA (Escherichia coli K-12; E467K/H736E) (protein)
chain: MKVLIVESEFLHQDTWVGNAVERLADALSQQNVTVIKSTSFDDGFAILSSNEAIDCLMFSYQMEHPDEHQNVRQLIGKLHERQQNVPVFLLGDREKALAAMDRDLLELVDEFAWILEDTADFIAGRAVAAMTRYRQQLLPPLFSALMKYSDIHEYSWAAPGHQGGVGFTKTPAGRFYHDYYGENLFRTDMGIERTSLGSLLDHTGAFGESEKYAARVFGADRSWSVVVGTSGSNRTIMQACMTDNDVVVVDRNCHKSIEQGLMLTGAKPVYMVPSRNRYGIIGPIYPQEMQPETLQKKISESPLTKDKAGQKPSYCVVTNCTYDGVCYNAKEAQDLLEKTSDRLHFDEAWYGYARFNPIYADHYAMRGEPGDHNGPTVFATHSTHKLLNALSQASYIHVREGRGAINFSRFNQAYMMHATTSPLYAICASNDVAVSMMDGNSGLSLTQEVIDEAVDFRQAMARLYKKFTADGSWFFKPWNKEVVTDPQTGKTYDFADAPTKLLTTVQDCWVMHPGESWHGFKDIPDNWSMLDPIKVSILAPGMGEDGELEETGVPAALVTAWLGRHGIVPTRTTDFQIMFLFSMGVTRGKWGTLVNTLCSFKRHYDANTPLAQVMPELVEQYPDTYANMGIHDLGDTMFAWLKENNPGARLNEAYSGLPVAEVTPREAYNAIVDNNVELVSIENLPGRIAANSVIPYPPGIPMLLSGENFGDKNSPQVSYLRSLQSWDHHFPGFEEETEGTEIIDGIYHVMCVKA
notes: as for B1
Km [1]: 15.70 ± 0.87 mM | kcat [1]: 29.2 ± 0.44 s⁻¹ | kcat/Km [1]: 1860 M⁻¹ s⁻¹

B3: AdiA (Escherichia coli K-12; H736E) (protein)
chain: MKVLIVESEFLHQDTWVGNAVERLADALSQQNVTVIKSTSFDDGFAILSSNEAIDCLMFSYQMEHPDEHQNVRQLIGKLHERQQNVPVFLLGDREKALAAMDRDLLELVDEFAWILEDTADFIAGRAVAAMTRYRQQLLPPLFSALMKYSDIHEYSWAAPGHQGGVGFTKTPAGRFYHDYYGENLFRTDMGIERTSLGSLLDHTGAFGESEKYAARVFGADRSWSVVVGTSGSNRTIMQACMTDNDVVVVDRNCHKSIEQGLMLTGAKPVYMVPSRNRYGIIGPIYPQEMQPETLQKKISESPLTKDKAGQKPSYCVVTNCTYDGVCYNAKEAQDLLEKTSDRLHFDEAWYGYARFNPIYADHYAMRGEPGDHNGPTVFATHSTHKLLNALSQASYIHVREGRGAINFSRFNQAYMMHATTSPLYAICASNDVAVSMMDGNSGLSLTQEVIDEAVDFRQAMARLYKEFTADGSWFFKPWNKEVVTDPQTGKTYDFADAPTKLLTTVQDCWVMHPGESWHGFKDIPDNWSMLDPIKVSILAPGMGEDGELEETGVPAALVTAWLGRHGIVPTRTTDFQIMFLFSMGVTRGKWGTLVNTLCSFKRHYDANTPLAQVMPELVEQYPDTYANMGIHDLGDTMFAWLKENNPGARLNEAYSGLPVAEVTPREAYNAIVDNNVELVSIENLPGRIAANSVIPYPPGIPMLLSGENFGDKNSPQVSYLRSLQSWDHHFPGFEEETEGTEIIDGIYHVMCVKA
notes: as for B1
Km [1]: 15.27 ± 0.79 mM | kcat [1]: 17.5 ± 0.55 s⁻¹ | kcat/Km [1]: 1150 M⁻¹ s⁻¹

B4: AdiA (Escherichia coli K-12; E467K) (protein)
chain: MKVLIVESEFLHQDTWVGNAVERLADALSQQNVTVIKSTSFDDGFAILSSNEAIDCLMFSYQMEHPDEHQNVRQLIGKLHERQQNVPVFLLGDREKALAAMDRDLLELVDEFAWILEDTADFIAGRAVAAMTRYRQQLLPPLFSALMKYSDIHEYSWAAPGHQGGVGFTKTPAGRFYHDYYGENLFRTDMGIERTSLGSLLDHTGAFGESEKYAARVFGADRSWSVVVGTSGSNRTIMQACMTDNDVVVVDRNCHKSIEQGLMLTGAKPVYMVPSRNRYGIIGPIYPQEMQPETLQKKISESPLTKDKAGQKPSYCVVTNCTYDGVCYNAKEAQDLLEKTSDRLHFDEAWYGYARFNPIYADHYAMRGEPGDHNGPTVFATHSTHKLLNALSQASYIHVREGRGAINFSRFNQAYMMHATTSPLYAICASNDVAVSMMDGNSGLSLTQEVIDEAVDFRQAMARLYKKFTADGSWFFKPWNKEVVTDPQTGKTYDFADAPTKLLTTVQDCWVMHPGESWHGFKDIPDNWSMLDPIKVSILAPGMGEDGELEETGVPAALVTAWLGRHGIVPTRTTDFQIMFLFSMGVTRGKWGTLVNTLCSFKRHYDANTPLAQVMPELVEQYPDTYANMGIHDLGDTMFAWLKENNPGARLNEAYSGLPVAEVTPREAYNAIVDNNVELVSIENLPGRIAANSVIPYPPGIPMLLSGENFGDKNSPQVSYLRSLQSWDHHFPGFEHETEGTEIIDGIYHVMCVKA
notes: as for B1
Km [1]: 14.30 ± 0.64 mM | kcat [1]: 15.2 ± 0.23 s⁻¹ | kcat/Km [1]: 1060 M⁻¹ s⁻¹
